T1: extracellular domain of human CD269 (BCMA, TNFRSF17) (human, UniProt Q02223 4-54)
T1 construct: also called hBCMA; human BCMA
T1 sequence: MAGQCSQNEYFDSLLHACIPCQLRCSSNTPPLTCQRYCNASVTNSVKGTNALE

B1: J22.9-H (antibody, V domains shown)
VH: EVQLVESGGGLVQPGGSLRLSCAASGFTFSRYWMSWVRQAPGKGLVWVGEINPDSSTINYAPSLKDKFTISRDNAKNTLYLQMNSLRAEDTAVYYCASLYYDYGDAMDYWGQGTLVTVSS
VL: EIVMTQSPATLSVSPGERATLSCKASQSVDSNVAWYQQKPGQAPRALIYSASLRFSGIPARFSGSGSGTEFTLTISSLQSEDFAVYYCQQYNNYPLTFGAGTKLELKR
B2: J22.9-ISY (antibody, V domains shown)
VH: EVQLVESGGGLVQPGGSLRLSCAASGFTFSRYWISWVRQAPGKGLVWVGEINPSSSTINYAPSLKDKFTISRDNAKNTLYLQMNSLRAEDTAVYYCASLYYDYGDAYDYWGQGTLVTVSS
VL: EIVMTQSPATLSVSPGERATLSCKASQSVESNVAWYQQKPGQAPRALIYSASLRFSGIPARFSGSGSGTEFTLTISSLQSEDFAVYYCQQYNNYPLTFGAGTKLELK
B3: J22.9-FSY (antibody, V domains shown)
VH: EVQLVESGGGLVQPGGSLRLSCAASGFTFSRYWFSWVRQAPGKGLVWVGEINPSSSTINYAPSLKDKFTISRDNAKNTLYLQMNSLRAEDTAVYYCASLYYDYGDAYDYWGQGTLVTVSS
VL: EIVMTQSPATLSVSPGERATLSCKASQSVESNVAWYQQKPGQAPRALIYSASLRFSGIPARFSGSGSGTEFTLTISSLQSEDFAVYYCQQYNNYPLTFGAGTKLELK

Experiments:
[1] = target: T1, extracellular domain of human CD269 …; experiment: SPR, IgG immobilised on GLH chip, BCMA in the mobile phase (n = 3)
[2] = target: T2, extracellular domain of cynomolgous BCMA (cynomolgous, UniProt A0A2K5UD97 1-53); experiment: SPR, IgG immobilised on GLH chip, BCMA in the mobile phase (n = 2)
T2 construct: Used coated on plates in ELISA and in the mobile phase in SPR; also called cyBCMA; cynoBCMA
T2 sequence (A0A2K5UD97 entry or part of it limits assumed, form in doubt): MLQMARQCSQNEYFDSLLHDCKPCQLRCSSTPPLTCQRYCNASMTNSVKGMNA

Row | Binder | Kd [1] | Kd [2]
1 | B1 | 15 nM | 200 nM
2 | B2 | 2 nM | 17 nM
3 | B3 | 2.2 nM | 20 nM
